In the supplement of paper PMC7125110:
± gives the standard error. Variants at the floor of the assay were thinned out.

B1: glmS ribozyme (parent)
chain: AUAAAAGCGCCAGAACUACAGAAAUGUAGUUGACGAGGAGGAGGUUUAUCGAAUUUUCGGCGGAUGCCUCCAAA

What was measured:
Conditions in all cases: with glucosamine-6-phosphate
glucosamine-6-phosphate [1] = variants of: B1; experiment: self-cleavage kobs at 160 uM GlcN6P; higher = faster cleavage; RNA array
Summary of the method: (§1)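 On sequenced MiSeq chips, barcoded ribozyme variants were made in situ by E. coli RNA polymerase and followed at 37 °C through a hybridised Cy3 probe. Glucosamine-6-phosphate was flowed in at 40 μM to 10 mM in HEPES/KCl/Mg(OAc)2 buffer. Exponential fits to normalised per-tile medians gave kobs, and weighted Michaelis–Menten fits gave kcat and KM.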

glucosamine-6-phosphate [2] = variants of: B1; experiment: self-cleavage kobs at 640 uM GlcN6P; higher = faster cleavage; RNA array
Summary of the method: as §1

glucosamine-6-phosphate [3] = variants of: B1; experiment: self-cleavage kobs at 2500 uM GlcN6P; higher = faster cleavage; RNA array
Summary of the method: as §1

glucosamine-6-phosphate [4] = variants of: B1; experiment: self-cleavage kobs at 10000 uM GlcN6P; higher = faster cleavage; RNA array
Summary of the method: as §1

| Variant | self-cleavage kobs at 160 uM GlcN6P (glucosamine-6-phosphate [1]) [s⁻¹] | self-cleavage kobs at 640 uM GlcN6P (glucosamine-6-phosphate [2]) [s⁻¹] | self-cleavage kobs at 2500 uM GlcN6P (glucosamine-6-phosphate [3]) [s⁻¹] | self-cleavage kobs at 10000 uM GlcN6P (glucosamine-6-phosphate [4]) [s⁻¹] |
| --- | --- | --- | --- | --- |
| A6G C11U G43C | < 1e-05 | < 1e-05 | – | – |
| G26U U54A | 0.000887 ± 0.00025 | 0.00635 ± 0.002 | 0.00265 ± 0.0013 | 0.0333 ± 0.0093 |
| G59U C67U C68U U69C | 4.87e-05 ± 2.4e-05 | – | – | – |
| C16U A52G C71G | 0.000103 ± 3.1e-05 | 5.85e-05 ± 1.3e-05 | 0.000175 ± 3.2e-05 | – |
| A15U U55G A64G | 0.000233 ± 5.2e-05 | – | – | – |
| G7C G13C A48G C70A | < 1e-05 | < 1e-05 | < 1e-05 | – |
| G60A C61U G63A | < 1e-05 | – | < 1e-05 | – |
| G35U A39U | < 1e-05 | < 1e-05 | < 1e-05 | – |
| G9A G29U A36C | < 1e-05 | < 1e-05 | < 1e-05 | – |
| C10U G40A | < 1e-05 | – | – | < 1e-05 |
| G60U C68U | < 1e-05 | – | – | < 1e-05 |
| G9A C10U G13A A52C | < 1e-05 | < 1e-05 | < 1e-05 | – |
| G43A G60C | < 1e-05 | < 1e-05 | < 1e-05 | < 1e-05 |
| G7U C34G | < 1e-05 | < 1e-05 | – | – |
| A15G U31C U45C U49A | < 1e-05 | < 1e-05 | < 1e-05 | – |
| G9U C10G C11U C70U | < 1e-05 | – | < 1e-05 | – |
| G37A G60A G66U | < 1e-05 | – | – | – |
| G9C U46G | < 1e-05 | < 1e-05 | – | < 1e-05 |
| G7C G32U A36U G40U A42U A52G | < 1e-05 | < 1e-05 | < 1e-05 | – |
| G9U A33U A53G G66U | < 1e-05 | – | – | – |
| C16U C58G C68G | 0.000169 ± 4.4e-05 | 0.000132 ± 3.4e-05 | 7.79e-05 ± 1.5e-05 | – |
| A6G G9U G13C C34A | < 1e-05 | < 1e-05 | < 1e-05 | – |
| A53U G59U C61U G66U | < 1e-05 | – | < 1e-05 | – |
| C16A U54A C67A | 4.32e-05 ± 1.9e-05 | 6.57e-05 ± 2.8e-05 | 0.000181 ± 4.8e-05 | – |
| G32C G63U | < 1e-05 | < 1e-05 | – | – |
| A33G C34A U55A C70A | 0.00034 ± 0.00013 | 9.12e-05 ± 3.4e-05 | – | – |

| Variant | self-cleavage kobs at 160 uM GlcN6P (glucosamine-6-phosphate [1]) [s⁻¹] | self-cleavage kobs at 640 uM GlcN6P (glucosamine-6-phosphate [2]) [s⁻¹] | self-cleavage kobs at 2500 uM GlcN6P (glucosamine-6-phosphate [3]) [s⁻¹] | self-cleavage kobs at 10000 uM GlcN6P (glucosamine-6-phosphate [4]) [s⁻¹] |
| --- | --- | --- | --- | --- |
| C8G G59A C71G | < 1e-05 | – | – | – |
| A33C G59C C61G A64G | < 1e-05 | < 1e-05 | – | – |
| C16U C34G | < 1e-05 | – | – | < 1e-05 |
| U45C U46C | 0.000106 ± 3e-05 | 0.000335 ± 5.7e-05 | 0.00111 ± 0.00037 | – |
| G35A A36U U55A | < 1e-05 | – | – | – |
| A6G C8A A48C | < 1e-05 | – | – | – |
| G35U A42C U55C | < 1e-05 | < 1e-05 | – | – |
| C16A C34G U49A C50A | < 1e-05 | – | – | – |
| U46G U49G G63A A64C | < 1e-05 | < 1e-05 | < 1e-05 | – |
| U57G G63C | < 1e-05 | < 1e-05 | < 1e-05 | – |
| C16U A64G U65A C70U | 8.56e-05 ± 2.7e-05 | 0.00104 ± 0.00025 | 0.000964 ± 0.00024 | – |
| G9U G32C G35C A64G | < 1e-05 | < 1e-05 | < 1e-05 | – |
| C16G G41U U54A | < 1e-05 | – | – | – |
| U30G G40A | 0.000128 ± 3.7e-05 | 0.000261 ± 6.3e-05 | 0.000813 ± 0.00013 | – |
| G13A G43C G66A | < 1e-05 | – | < 1e-05 | < 1e-05 |
| A12G C34A A36G | < 1e-05 | – | < 1e-05 | – |
| G35C G40C A52C | < 1e-05 | < 1e-05 | < 1e-05 | – |
| C11A A39C C70G | < 1e-05 | < 1e-05 | < 1e-05 | – |
| C10U A33C G59A G66U | < 1e-05 | < 1e-05 | – | – |
| G37C G41A C50G G60A C67G C68A | 9.12e-05 ± 1.6e-05 | 8.46e-05 ± 1.9e-05 | 9.58e-05 ± 1.3e-05 | – |
| G7A G9U C50U | < 1e-05 | – | < 1e-05 | – |
| G40A U55A | 0.000151 ± 5.3e-05 | 0.00156 ± 0.0003 | 0.000842 ± 0.00022 | – |
| C50G G51A | < 1e-05 | – | – | < 1e-05 |
| A6G C11U A15U C50U | < 1e-05 | – | – | < 1e-05 |
| C10A C16U G41A A42C | < 1e-05 | < 1e-05 | < 1e-05 | < 1e-05 |
| U49G G60U | < 1e-05 | < 1e-05 | < 1e-05 | – |

| Variant | self-cleavage kobs at 160 uM GlcN6P (glucosamine-6-phosphate [1]) [s⁻¹] | self-cleavage kobs at 640 uM GlcN6P (glucosamine-6-phosphate [2]) [s⁻¹] | self-cleavage kobs at 2500 uM GlcN6P (glucosamine-6-phosphate [3]) [s⁻¹] | self-cleavage kobs at 10000 uM GlcN6P (glucosamine-6-phosphate [4]) [s⁻¹] |
| --- | --- | --- | --- | --- |
| G59U U65A C67U | < 1e-05 | – | – | – |
| A33C G51U | < 1e-05 | < 1e-05 | – | < 1e-05 |
| A36G G38C A42U G62A C67U C68A U69G | < 1e-05 | – | – | – |
| G13C A14C U55G G59U | < 1e-05 | < 1e-05 | – | – |
| A42C C61U | < 1e-05 | < 1e-05 | < 1e-05 | – |
| G7U G9A | < 1e-05 | < 1e-05 | < 1e-05 | – |
| U30A G51U | < 1e-05 | < 1e-05 | < 1e-05 | < 1e-05 |
| C8G U57C G62U | < 1e-05 | < 1e-05 | < 1e-05 | < 1e-05 |
| G9C G40A | < 1e-05 | < 1e-05 | < 1e-05 | < 1e-05 |
| C11G A14G G29A | < 1e-05 | – | – | – |
| G13C A14U G32A | 0.000741 ± 0.00017 | – | 0.00667 ± 0.0017 | – |
| C16U G32U C70A | < 1e-05 | – | – | – |
| G7C U45G G59A | < 1e-05 | < 1e-05 | < 1e-05 | < 1e-05 |
| C10G U31C A48U C61A C70G | < 1e-05 | < 1e-05 | – | – |
| C16U G37A G40C G43A | < 1e-05 | < 1e-05 | < 1e-05 | < 1e-05 |
| A12U A15C U45C A48C | < 1e-05 | – | < 1e-05 | – |
| G51A U57C | < 1e-05 | < 1e-05 | < 1e-05 | < 1e-05 |
| U31A G35C U54A A64U | < 1e-05 | – | < 1e-05 | – |
| G7U A15C A36U U47C | < 1e-05 | < 1e-05 | < 1e-05 | – |
| A33U G41U A52U | < 1e-05 | < 1e-05 | < 1e-05 | – |
| U30A U31C G60A C71A | < 1e-05 | – | – | – |
| U46A C61G | < 1e-05 | < 1e-05 | < 1e-05 | – |
| A15U G37U | < 1e-05 | – | – | < 1e-05 |
| G13A G41C C67U | < 1e-05 | < 1e-05 | < 1e-05 | – |
| A6C A15U C71G | < 1e-05 | – | – | – |
| G35C A36U C58U | < 1e-05 | – | < 1e-05 | – |

| Variant | self-cleavage kobs at 160 uM GlcN6P (glucosamine-6-phosphate [1]) [s⁻¹] | self-cleavage kobs at 640 uM GlcN6P (glucosamine-6-phosphate [2]) [s⁻¹] | self-cleavage kobs at 2500 uM GlcN6P (glucosamine-6-phosphate [3]) [s⁻¹] | self-cleavage kobs at 10000 uM GlcN6P (glucosamine-6-phosphate [4]) [s⁻¹] |
| --- | --- | --- | --- | --- |
| A39C U57G C71A | < 1e-05 | < 1e-05 | < 1e-05 | – |
| G9A C11A G35A U47C C68A | < 1e-05 | – | < 1e-05 | – |
| G9C A48G | < 1e-05 | < 1e-05 | < 1e-05 | < 1e-05 |
| C11A A33U G66A | < 1e-05 | < 1e-05 | < 1e-05 | – |
| G38C G44U C50U | < 1e-05 | < 1e-05 | – | – |
| C34U U56C | < 1e-05 | < 1e-05 | < 1e-05 | < 1e-05 |
| C16G A42G G60C C70U | < 1e-05 | – | < 1e-05 | – |
| A23C A52G U69A | 6.42e-05 ± 2.4e-05 | 9.59e-05 ± 2.5e-05 | – | – |
| A6C A15U C16U | < 1e-05 | – | – | – |
| U57C G60U | < 1e-05 | < 1e-05 | < 1e-05 | < 1e-05 |
| A14C A36G U46G U65A | < 1e-05 | < 1e-05 | – | – |
| A12G G38U U57C | < 1e-05 | < 1e-05 | – | < 1e-05 |
| U31G A33U U47G | < 1e-05 | – | – | – |
| G29C A33C C61A | < 1e-05 | – | – | – |
| A14U U47C U49A | < 1e-05 | – | – | – |
| C8U A15G G29A | < 1e-05 | < 1e-05 | < 1e-05 | – |
| U31G A33U G38U | < 1e-05 | – | – | – |
| C16U U31C C68U | 6.38e-05 ± 2.3e-05 | 0.000149 ± 3.2e-05 | 0.00018 ± 4e-05 | – |
| A15G C34U G63A | < 1e-05 | – | < 1e-05 | – |
| C8U G40U G43U | < 1e-05 | < 1e-05 | < 1e-05 | – |
| G35U C67A | < 1e-05 | < 1e-05 | < 1e-05 | – |
| G32U A52U | < 1e-05 | < 1e-05 | < 1e-05 | – |
| C11A A15U C70G | 4.95e-05 ± 1.9e-05 | 0.000432 ± 0.00013 | – | – |
| A12C G40C C61G | < 1e-05 | < 1e-05 | < 1e-05 | < 1e-05 |
